From patent US20220348651A1, “ENTPD2 ANTIBODIES, COMBINATION THERAPIES, AND METHODS OF USING THE ANTIBODIES AND COMBINATION THERAPIES” (Novartis AG, priority 2019, published 2022) come the findings set out here.

One test concerns the target T1, human ENTPD2 (Homo sapiens, UniProt Q9Y5L3).
T1 construct: residues 29-462 of human or cyno ENTPD2 were cloned into expression vector; GP67 signal peptide (N); made in house; host or cells: High Five (Trichoplusia ni) insect cells, baculovirus
T1 sequence (Q9Y5L3 29-462): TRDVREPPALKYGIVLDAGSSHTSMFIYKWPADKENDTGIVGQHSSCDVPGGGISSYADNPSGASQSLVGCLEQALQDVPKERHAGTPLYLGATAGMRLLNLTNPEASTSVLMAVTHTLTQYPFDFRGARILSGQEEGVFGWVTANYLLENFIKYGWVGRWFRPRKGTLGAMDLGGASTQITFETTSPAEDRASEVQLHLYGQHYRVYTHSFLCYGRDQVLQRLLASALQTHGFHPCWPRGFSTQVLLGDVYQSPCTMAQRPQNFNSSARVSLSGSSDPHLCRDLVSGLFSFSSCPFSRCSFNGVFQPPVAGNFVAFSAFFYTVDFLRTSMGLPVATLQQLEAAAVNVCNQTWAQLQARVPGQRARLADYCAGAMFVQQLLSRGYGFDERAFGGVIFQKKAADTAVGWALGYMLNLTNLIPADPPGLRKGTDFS
Kind of test: Biacore (SPR) affinity to human ENTPD2 ECD. The test is classed as binding. The following applies: 25° C. The protocol: (§1) Biacore Screening: Affinity was measured by determining the kinetic rate constants using surface plasmon resonance (SPR) on a Biacore T200 or T100 with the T200 sensitivity upgrade instrument (Biacore, GE Healthcare). Antibodies were captured on CM5 sensor chips (Biacore, GE Healthcare) prepared with a mouse anti-human IgG Fc antibody (ThermoFisher catalogue #05-4200) amine coupled to the surface. […] ENTPD2 analytes were allowed to associate for 180 s and dissociate for up to 1800 s depending on the off-rate of the antibody at a flow rate of 30 μL/min. The running buffer was PBS pH 7.2 (prepared from a Corning 10X stock, cat#46-013-CM)+0.05% Tween 20. Regeneration was accomplished with 30 s injections of 3 or 4 M MgCl2 to remove all the captured antibody and remaining complex from the surface, after which fresh antibody was captured. The raw data were analyzed using Biacore T200 Evaluation Software version 1.0 and fit to a 1:1 binding model, with all parameters set to fit globally except for RI, which was set to fit locally.

Test [1] concerns cynomologus (cyno) ENTPD2. Nature of the test: Biacore (SPR) affinity to cyno ENTPD2 ECD. The test is classed as binding, cynomolgus monkey. Conditions: 25° C. The protocol:
as §1
(In general: In SPR one partner is held on a chip, and binding of the other changes the refractive index at the surface.)

A further test deals with T2, mouse ENTPD2 (Mus musculus, UniProt O55026).
T2 construct: residues 29-462 of mouse or rat ENTPD2 (the extracellular domain); mouse IgK signal peptide (N); His6; made in house; host or cells: FreeStyle 293-F cells, transient transfection
T2 sequence (O55026 29-462): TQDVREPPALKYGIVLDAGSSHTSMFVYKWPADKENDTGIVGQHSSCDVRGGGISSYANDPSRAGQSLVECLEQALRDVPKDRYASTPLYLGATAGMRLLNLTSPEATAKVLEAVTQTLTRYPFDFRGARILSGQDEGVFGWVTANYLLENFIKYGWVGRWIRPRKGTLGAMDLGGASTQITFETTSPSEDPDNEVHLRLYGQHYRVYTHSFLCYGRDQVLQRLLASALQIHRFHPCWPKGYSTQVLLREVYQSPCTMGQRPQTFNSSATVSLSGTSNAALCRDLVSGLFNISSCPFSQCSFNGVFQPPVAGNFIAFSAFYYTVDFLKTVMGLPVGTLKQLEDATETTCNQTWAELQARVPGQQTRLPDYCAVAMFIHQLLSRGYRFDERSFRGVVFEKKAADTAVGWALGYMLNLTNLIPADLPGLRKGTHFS
Nature of the test: Antibody specificity: binding to mouse ENTPD2. The following applies: for BIACore KD: Mouse ENTPD2. The text has this:
Antibody specificity for mAbl-mAblO was confirmed. […] Antibodies mAb8, mAb9, and mAb10 show weak affinity to mouse ENTPD2. None of the selected antibodies bind to rat ENTPD2.

Sequence of cynomologus (cyno) ENTPD2 (as listed by the source): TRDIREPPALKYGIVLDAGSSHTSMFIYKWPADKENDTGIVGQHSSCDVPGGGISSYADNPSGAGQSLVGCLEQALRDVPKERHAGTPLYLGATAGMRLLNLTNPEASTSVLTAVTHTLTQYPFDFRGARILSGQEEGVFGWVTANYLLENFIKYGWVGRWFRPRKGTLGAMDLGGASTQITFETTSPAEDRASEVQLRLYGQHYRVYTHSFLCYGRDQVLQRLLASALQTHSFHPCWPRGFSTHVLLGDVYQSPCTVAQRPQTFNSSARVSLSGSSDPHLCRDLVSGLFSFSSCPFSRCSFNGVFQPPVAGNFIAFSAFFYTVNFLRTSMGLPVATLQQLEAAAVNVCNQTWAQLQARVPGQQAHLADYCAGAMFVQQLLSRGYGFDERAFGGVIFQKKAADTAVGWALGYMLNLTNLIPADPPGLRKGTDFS

B1: mAb8: anti-human ENTPD2 antibody of Table 1; VH SEQ ID NO: 91, VL SEQ ID NO: 102 (antibody, V domains shown)
VH: QVQLQQSGPGLVKPSQTLSLTCAISGDSVSSSSAAWNWIRQSPSRGLEWLGRIYYRSKWYNDYAVSVKSRITINPDTSKNQFSLQLNSVTPEDTAVYYCARGSYVTSSYEGFDYWGQGTLVTVSS
VL: SYELTQPLSVSVALGQTARITCSGDNLPEKYAYWYQQKPGQAPVLVIYDDNKRPSGIPERFSGSNSGNTATLTISRAQAGDEADYYCQSYGKWGWTWVFGGGTKLTVL
In the test with human ENTPD2, B1 came in with a ka of 290000 M⁻¹ s⁻¹ and a kd of 0.00094 s⁻¹. In test [1], this molecule displayed a ka of 300000 M⁻¹ s⁻¹ and a kd of 0.024 s⁻¹. Moreover, in the test with mouse ENTPD2, the “affinity / cross-reactivity to mouse ENTPD2” value (“affinity / cross-reactivity” for short) is reported as “weak affinity” and the “BIACore KD” value was “Weak binding”.

B2: mAb3: humanized anti-human ENTPD2 antibody from mAb17; VH SEQ ID NO: 33, VL SEQ ID NO: 29 (antibody, V domains shown)
VH: QVQLVQSGAEVVKPGASVKISCKASGYTFTDYNMDWVKQAPGQRLEWIGDINPKYDISTYNQQFKGKATITVDTSASTAYMELSSLRSEDTAVYYCARRGFFLYYGINYYYFDVWGQGTLVTVSS
VL: EIVLTQSPATLSASPGERITLSCSASSSVSYIHWYQQKPGQAPRLLIYSTSNLASGIPARFSGSGSGTFYTLTISSVEPEDAAVYYCHQWSSYPWTFGGGTKLEIK
In the test with human ENTPD2, B2 registered a ka of 130000 M⁻¹ s⁻¹ and a kd of 0.00016 s⁻¹. Further, in test [1], the ka amounted to 450000 M⁻¹ s⁻¹ and the kd is 0.00098 s⁻¹. Further, in the test with mouse ENTPD2, the “BIACore KD” value is given as “No binding”.

B3: mAb9: anti-human ENTPD2 antibody of Table 1; VH SEQ ID NO: 115, VL SEQ ID NO: 125 (antibody, V domains shown)
VH: QVQLVQSGAEVKKPGSSVKVSCKASGGTFDSYAVSWVRQAPGQGLEWMGRIVPWLGHTQYAQKFQGRVTITADESTSTAYMELSSLRSEDTAVYYCARESPGYRYSFDVWDQGTLVTVSS
VL: SYELTQPLSVSVALGQTARITCSGDAIGEKYVYWYQQKPGQAPVLVIYDDNNRPSGIPERFSGSNSGNTATLTISRAQAGDEADYYCASYDLQQARWVFGGGTKLTVL
With B3, in the test with human ENTPD2, the ka amounted to 380000 M⁻¹ s⁻¹ and the kd amounted to 0.0003 s⁻¹. In test [1], this molecule came in with a ka of 990000 M⁻¹ s⁻¹ and a kd of 0.021 s⁻¹. Further, the “affinity / cross-reactivity” value in the test with mouse ENTPD2 was “weak affinity”.

B4: mAb10: anti-human ENTPD2 antibody of Table 1; VH SEQ ID NO: 132, VL SEQ ID NO: 125 (antibody, V domains shown)
VH: QVQLVQSGAEVKKPGSSVKVSCKASGGTFDSYAVSWVRQAPGQGLEWMGRIVPWLGFTRYAQKFQGRVTITADESTSTAYMELSSLRSEDTAVYYCARESPGYRYSFDVWDQGTLVTVSS
VL: SYELTQPLSVSVALGQTARITCSGDAIGEKYVYWYQQKPGQAPVLVIYDDNNRPSGIPERFSGSNSGNTATLTISRAQAGDEADYYCASYDLQQARWVFGGGTKLTVL
With B4, in the test with human ENTPD2, the ka was determined as 340000 M⁻¹ s⁻¹ and the kd was determined as 0.00024 s⁻¹. In test [1], this molecule yielded a ka of 1.2e+06 M⁻¹ s⁻¹ and a kd of 0.018 s⁻¹. Further, in the test with mouse ENTPD2, the “affinity / cross-reactivity” value is given as “weak affinity” and the “BIACore KD” value is on record as “Weak binding”.
